{"source": "paper PMC10715038", "about": "(Microbiology Spectrum, 2023)", "key": {"[1]": {"biological_target": "T1, SARS-CoV-2 WHU01 Spike RBD, monomeric (SARS-CoV-2, UniProt P0DTC2)", "T1 construct": "not shown: Fc (human IgG1), C-terminal, cleaved", "experiment": "SPR", "conditions": "both partners purified"}, "[2]": {"biological_target": "T1, SARS-CoV-2 WHU01 Spike RBD, monomeric", "experiment": "SPR", "conditions": "both partners purified", "remark": "listed apart in the source"}}}
{"binder": "Rhinolophus sinicus bat ACE2-huFc (soluble bat ACE2 ectodomain, human IgG1 Fc fusion) (Fc fusion) QSTTEDEAKMFLDKFNTKAEDLSHQSSLASWDYNTNINDENVQKMDEAGAKWSAFYEEQSKLAKNYSLEQIQNVTVKLQLQILQQSGSPVLSEDKSKRLNSILNAMSTIYSTGKVCKPNKPQECLLLEPGLDNIMGTSKDYNERLWAWEGWRAEVGKQLRPLYEEYVVLKNEMARGYHYEDYGDYWRRDYETEESPGPGYSRDQLMKDVERIFTEIKPLYEHLHAYVRAKLMDTYPFHISPTGCLPAHLLGDMWGRFWTNLYPLTVPFGQKPNIDVTDEMLKQGWDADRIFKEAEKFFVSVGLPNMTEGFWNNSMLTEPGDGRKVVCHPTAWDLGKGDFRIKMCTKVTMEDFLTAHHEMGHIQYDMAYASQPYLLRNGANEGFHEAVGEVMSLSVATPKHLKTMGLLSPDFREDNETEINFLLKQALNIVGTLPFTYMLEKWRWMVFKGEIPKEEWMKKWWEMKRKIVGVVEPVPHDETYCDPASLFHVANDYSFIRYYTRTIFEFQFHEALCRIAQHDGPLHKCDISNSTDAGKKLHQMLSVGKSQAWTKTLEDIVDSRNMDVGPLLKYFEPLYTWLQEQNRKSYVGWNTDWSPYSDQSIKVRISLKSALGENAYEWNDNEMYLFRSSVAYAMREYFLKEKHQTILFGAENVWVSNLKPRISFNFHVTSPGNLSDIIPRPEVEGAIRMSRSRINDAFRLDDNSLEFLGIQPTLGPPYQPPVT", "values": [{"measurement": "Kd", "setting": "[1]", "result": 1.14, "unit": "µM"}, {"measurement": "koff", "setting": "[1]", "result": 0.0343, "unit": "s⁻¹"}, {"measurement": "kon", "setting": "[1]", "result": 30000, "unit": "M⁻¹ s⁻¹"}, {"measurement": "Kd", "setting": "[2]", "result": 1.92, "unit": "µM"}, {"measurement": "koff", "setting": "[2]", "result": 0.0377, "unit": "s⁻¹"}, {"measurement": "kon", "setting": "[2]", "result": 20000, "unit": "M⁻¹ s⁻¹"}]}
{"binder": "Pig ACE2-huFc (soluble pig ACE2 ectodomain, human IgG1 Fc fusion) (Fc fusion) QSTTEELAKTFLEKFNLEAEDLAYQSSLASWNYNTNITDENIQKMNDARAKWSAFYEEQSRIAKTYPLDEIQTLILKRQLQALQQSGTSGLSADKSKRLNTILNTMSTIYSSGKVLDPNNPQECLVLEPGLDEIMENSKDYSRRLWAWESWRAEVGKQLRPLYEEYVVLENEMARANNYEDYGDYWRGDYEVTGTGDYDYSRNQLMEDVERTFAEIKPLYEHLHAYVRAKLMDAYPSRISPTGCLPAHLLGDMWGRFWTNLYPLTVPFGEKPSIDVTEAMVNQSWDAIRIFEEAEKFFVSIGLPNMTQGFWNNSMLTEPGDGRKVVCHPTAWDLGKGDFRIKMCTKVTMDDFLTAHHEMGHIQYDMAYAIQPYLLRNGANEGFHEAVGEIMSLSAATPHYLKALGLLPPDFYEDSETEINFLLKQALTIVGTLPFTYMLEKWRWMVFKGEIPKEQWMQKWWEMKREIVGVVEPLPHDETYCDPACLFHVAEDYSFIRYYTRTIYQFQFHEALCRTAKHEGPLYKCDISNSTEAGQKLLQMLSLGKSEPWTLALENIVGVKTMDVKPLLSYFEPLLTWLKAQNGNSSVGWNTDWTPYADQSIKVRISLKSALGKEAYEWNDNEMYLFRSSIAYAMRNYFSSAKNETIPFGAEDVWVSDLKPRISFNFFVTSPANMSDIIPRSDVEKAISMSRSRINDAFRLDDNTLEFLGIQPTLGPPDEPPVT", "values": [{"measurement": "Kd", "setting": "[1]", "result": 1.14, "unit": "µM"}, {"measurement": "koff", "setting": "[1]", "result": 0.1, "unit": "s⁻¹"}, {"measurement": "kon", "setting": "[1]", "result": 87000, "unit": "M⁻¹ s⁻¹"}, {"measurement": "Kd", "setting": "[2]", "result": 1, "unit": "µM"}, {"measurement": "koff", "setting": "[2]", "result": 0.0395, "unit": "s⁻¹"}, {"measurement": "kon", "setting": "[2]", "result": 40000, "unit": "M⁻¹ s⁻¹"}]}
